Measurements published in paper PMC10916433 (2023).

B1: GFP‐tagged wild‐type RAGE (AAV‐RAGE‐Wt) [mouse] / receptor‐interacting serine/threonine protein kinase 1 (RIPK1), endogenous [mouse (endogenous in BV2 cells and in mouse hippocampus)] (parent complex)
chain 1: GQNITARIGEPLVLSCKGAPKKPPQQLEWKLNTGRTEAWKVLSPQGGPWDSVARILPNGSLLLPATGIVDEGTFRCRATNRRGKEVKSNYRVRVYQIPGKPEIVDPASELTASVPNKVGTCVSEGSYPAGTLSWHLDGKLLIPDGKETLVKEETRRHPETGLFTLRSELTVIPTQGGTHPTFSCSFSLGLPRRRPLNTAPIQLRVREPGPPEGIQLLVEPEGGIVAPGGTVTLTCAISAQPPPQVHWIKDGAPLPLAPSPVLLLPEVGHEDEGTYSCVATHPSHGPQESPPVSIRVTETGDEGPAEGSVGESGLGTLALALGILGGLGVVALLVGAILWRKRQPRREERKAPESQEDEEERAELNQSEEAEMPENGAGGP
chain 2: MQPDMSLDNIKMASSDLLEKTDLDSGGFGKVSLCYHRSHGFVILKKVYTGPNRAEYNEVLLEEGKMMHRLRHSRVVKLLGIIIEEGNYSLVMEYMEKGNLMHVLKTQIDVPLSLKGRIIVEAIEGMCYLHDKGVIHKDLKPENILVDRDFHIKIADLGVASFKTWSKLTKEKDNKQKEVSSTTKKNNGGTLYYMAPEHLNDINAKPTEKSDVYSFGIVLWAIFAKKEPYENVICTEQFVICIKSGNRPNVEEILEYCPREIISLMERCWQAIPEDRPTFLGIEEEFRPFYLSHFEEYVEEDVASLKKEYPDQSPVLQRMFSLQHDCVPLPPSRSNSEQPGSLHSSQGLQMGPVEESWFSSSPEYPQDENDRSVQAKLQEEASYHAFGIFAEKQTKPQPRQNEAYNREEERKRRVSHDPFAQQRARENIKSAGARGHSDPSTTSRGIAVQQLSWPATQTVWNNGLYNQHGFGTTGTGVWYPPNLSQMYSTYKTPVPETNIPGSTPTMPYFSGPVADDLIKYTIFNSSGIQIGNHNYMDVGLNSQPPNNTCKEESTSRHQAIFDNTTSLTDEHLNPIRENLGRQWKNCARKLGFTESQIDEIDHDYERDGLKEKVYQMLQKWLMREGTKGATVGKLAQALHQCCRIDLLNHLIRASQS

Variants of: B1
Experiment: co-immunoprecipitation (IP: RIPK1, IB: RAGE), optical density of blot; hippocampus of db/db + RAGE-KD mice injected with AAV-RAGE-Wt or AAV-RAGE-Mut; n = 4; mean ± S.D; parent: 1.9; read off a plot

Variant | response
chain 1 GQNITARIGEPLVLSCKGAPKKPPQQLEWKLNTGRTEAWKVLSPQGGPWDSVARILPNGSLLLPATGIVDEGTFRCRATNRRGKEVKSNYRVRVYQIPGKPEIVDPASELTASVPNKVGTCVSEGSYPAGTLSWHLDGKLLIPDGKETLVKEETRRHPETGLFTLRSELTVIPTQGGTHPTFSCSFSLGLPRRRPLNTAPIQLRVREPGPPEGIQLLVEPEGGIVAPGGTVTLTCAISAQPPPQVHWIKDGAPLPLAPSPVLLLPEVGHEDEGTYSCVATHPSHGPQESPPVSIRVTETGDEGPAEGSVGESGLGTLALALGILGGLGVVALLVGAILWAAAAAAREERKAPESQEDEEERAELNQSEEAEMPENGAGGP [chain 1 R340A, chain 1 K341A, chain 1 R342A, chain 1 Q343A, chain 1 P344A, chain 1 R345A] | ~1 fold change to the db/db + RAGE-KD group

Variants of: B1
Experiment: co-immunoprecipitation (IP: RAGE, IB: RIPK1), optical density of blot; hippocampus of db/db + RAGE-KD mice injected with AAV-RAGE-Wt or AAV-RAGE-Mut; n = 4; mean ± S.D; parent: 2.7; read off a plot

Variant | response
chain 1 GQNITARIGEPLVLSCKGAPKKPPQQLEWKLNTGRTEAWKVLSPQGGPWDSVARILPNGSLLLPATGIVDEGTFRCRATNRRGKEVKSNYRVRVYQIPGKPEIVDPASELTASVPNKVGTCVSEGSYPAGTLSWHLDGKLLIPDGKETLVKEETRRHPETGLFTLRSELTVIPTQGGTHPTFSCSFSLGLPRRRPLNTAPIQLRVREPGPPEGIQLLVEPEGGIVAPGGTVTLTCAISAQPPPQVHWIKDGAPLPLAPSPVLLLPEVGHEDEGTYSCVATHPSHGPQESPPVSIRVTETGDEGPAEGSVGESGLGTLALALGILGGLGVVALLVGAILWAAAAAAREERKAPESQEDEEERAELNQSEEAEMPENGAGGP [chain 1 R340A, chain 1 K341A, chain 1 R342A, chain 1 Q343A, chain 1 P344A, chain 1 R345A] | ~0.95 fold change to the db/db + RAGE-KD group
